Patent US20230357348A1 (AstraZeneca / MedImmune, published 2023)
Starred links: 1 amine or outer side, 2 acyl side, 3 side chain; linkers in the order of their positions; H or OH if unused. Non-standard residues stand in square brackets, D forms with d. Groups on a side chain read outwards from the residue. Primed or numbered codes have the meaning given here. No end group written: not given here. *: point of attachment. C20 diacid = O=C(O)CCCCCCCCCCCCCCCCCCC(=O)*; C18 diacid = O=C(O)CCCCCCCCCCCCCCCCC(=O)*; γGlu = O=C(O)[C@H](CCC(=O)[*:2])N[*:1]; αMeF = C[C@](N)(Cc1ccccc1)C(=O)O; (PEG)2 = polyethylene glycol 2; PEG4 = NCCOCCOCCOCCOCCC(=O)O; PEG4′ = polyethylene glycol; AEEA = NCCOCCOCC(=O)O; Aib = CC(C)(N)C(=O)O

B1: Peptide 271 (peptide)
peptide: H[Aib]HGS[αMeF]TSDVSK[αMeF]LDSRAAK([γGlu-C18 diacid])D[αMeF]VQ[Aib]IANT-NH2
modifications: N-terminus assumed
SMILES: CC[C@H](C)[C@H](NC(=O)C(C)(C)NC(=O)[C@H](CCC(N)=O)NC(=O)[C@@H](NC(=O)[C@](C)(Cc1ccccc1)NC(=O)[C@H](CC(=O)O)NC(=O)[C@H](CCCCNC(=O)CC[C@H](NC(=O)CCCCCCCCCCCCCCCCC(=O)O)C(=O)O)NC(=O)[C@H](C)NC(=O)[C@H](C)NC(=O)[C@H](CCCNC(=N)N)NC(=O)[C@H](CO)NC(=O)[C@H](CC(=O)O)NC(=O)[C@H](CC(C)C)NC(=O)[C@](C)(Cc1ccccc1)NC(=O)[C@H](CCCCN)NC(=O)[C@H](CO)NC(=O)[C@@H](NC(=O)[C@H](CC(=O)O)NC(=O)[C@H](CO)NC(=O)[C@@H](NC(=O)[C@](C)(Cc1ccccc1)NC(=O)[C@H](CO)NC(=O)CNC(=O)[C@H](Cc1c[nH]cn1)NC(=O)C(C)(C)NC(=O)[C@@H](N)Cc1c[nH]cn1)[C@@H](C)O)C(C)C)C(C)C)C(=O)N[C@@H](C)C(=O)N[C@@H](CC(N)=O)C(=O)N[C@H](C(N)=O)[C@@H](C)O
B2: Peptide 261 (peptide)
peptide: H[Aib]HGS[αMeF]TSDVSK[αMeF]LDSRAAK([PEG4-γGlu-C18 diacid])D[αMeF]VQ[Aib]IANT-NH2
modifications: N-terminus assumed
SMILES: CC[C@H](C)[C@H](NC(=O)C(C)(C)NC(=O)[C@H](CCC(N)=O)NC(=O)[C@@H](NC(=O)[C@](C)(Cc1ccccc1)NC(=O)[C@H](CC(=O)O)NC(=O)[C@H](CCCCNC(=O)CCOCCOCCOCCOCCNC(=O)CC[C@H](NC(=O)CCCCCCCCCCCCCCCCC(=O)O)C(=O)O)NC(=O)[C@H](C)NC(=O)[C@H](C)NC(=O)[C@H](CCCNC(=N)N)NC(=O)[C@H](CO)NC(=O)[C@H](CC(=O)O)NC(=O)[C@H](CC(C)C)NC(=O)[C@](C)(Cc1ccccc1)NC(=O)[C@H](CCCCN)NC(=O)[C@H](CO)NC(=O)[C@@H](NC(=O)[C@H](CC(=O)O)NC(=O)[C@H](CO)NC(=O)[C@@H](NC(=O)[C@](C)(Cc1ccccc1)NC(=O)[C@H](CO)NC(=O)CNC(=O)[C@H](Cc1c[nH]cn1)NC(=O)C(C)(C)NC(=O)[C@@H](N)Cc1c[nH]cn1)[C@@H](C)O)C(C)C)C(C)C)C(=O)N[C@@H](C)C(=O)N[C@@H](CC(N)=O)C(=O)N[C@H](C(N)=O)[C@@H](C)O
B3: Peptide 268 (peptide)
peptide: H[Aib]HGS[αMeF]TSDVSK[αMeF]LDSRAAK([AEEA-γGlu-C20 diacid])D[αMeF]VQ[Aib]IANT-NH2
modifications: N-terminus assumed
SMILES: CC[C@H](C)[C@H](NC(=O)C(C)(C)NC(=O)[C@H](CCC(N)=O)NC(=O)[C@@H](NC(=O)[C@](C)(Cc1ccccc1)NC(=O)[C@H](CC(=O)O)NC(=O)[C@H](CCCCNC(=O)COCCOCCNC(=O)CC[C@H](NC(=O)CCCCCCCCCCCCCCCCCCC(=O)O)C(=O)O)NC(=O)[C@H](C)NC(=O)[C@H](C)NC(=O)[C@H](CCCNC(=N)N)NC(=O)[C@H](CO)NC(=O)[C@H](CC(=O)O)NC(=O)[C@H](CC(C)C)NC(=O)[C@](C)(Cc1ccccc1)NC(=O)[C@H](CCCCN)NC(=O)[C@H](CO)NC(=O)[C@@H](NC(=O)[C@H](CC(=O)O)NC(=O)[C@H](CO)NC(=O)[C@@H](NC(=O)[C@](C)(Cc1ccccc1)NC(=O)[C@H](CO)NC(=O)CNC(=O)[C@H](Cc1c[nH]cn1)NC(=O)C(C)(C)NC(=O)[C@@H](N)Cc1c[nH]cn1)[C@@H](C)O)C(C)C)C(C)C)C(=O)N[C@@H](C)C(=O)N[C@@H](CC(N)=O)C(=O)N[C@H](C(N)=O)[C@@H](C)O

Target: human GLP-1 receptor (human, UniProt P43220 24-463)
Test: cell-based or functional assay

hGLP-1R EC50 (pM), cAMP [pM] | Binder
54.6 | B1
24.4 | H[Aib]HGS[αMeF]TSDVSK[αMeF]LDSRAAK([γGlu-γGlu-C18 diacid])D[αMeF]VQ[Aib]IANT-NH2 [Peptide 270]
66.5 | H[Aib]HGS[αMeF]TSDVSK[αMeF]LDSRAAK([AEEA-γGlu-AEEA-γGlu-C20 diacid])D[αMeF]VQ[Aib]IANT-NH2 [Peptide 266]
346 | H[Aib]HGS[αMeF]TSDVSK[αMeF]LDSQAAK([AEEA-AEEA-γGlu-γGlu-C20 diacid])D[αMeF]VQ[Aib]IANT-NH2 [Peptide 256]
15.7 | H[Aib]HGS[αMeF]TSDVSK[αMeF]LDSRAAK([AEEA-AEEA-C18 diacid])D[αMeF]VQ[Aib]IANT-NH2 [Peptide 272]
86.5 | H[Aib]HGS[αMeF]TSDVSK[αMeF]LDSRAAK([AEEA-γGlu-γGlu-C20 diacid])D[αMeF]VQ[Aib]IANT-NH2 [Peptide 279]
65.6 | H[Aib]HGS[αMeF]TSDVSK[αMeF]LDSRAAK([PEG4-γGlu-C20 diacid])D[αMeF]VQ[Aib]IANT-NH2 [Peptide 267]
78.9 | H[Aib]HGS[αMeF]TSDVSK[αMeF]LDSRAAK([AEEA-C20 diacid])D[αMeF]VQ[Aib]IANT-NH2 [Peptide 278]
13 | H[Aib]HGS[αMeF]TSDVSK[αMeF]LDSRAAK([AEEA-γGlu-C18 diacid])D[αMeF]VQ[Aib]IANT-NH2 [Peptide 262]
102 | H[Aib]HGS[αMeF]TSDVSK[αMeF]LDSR[Aib]AK([γGlu-C18 diacid])DFVESIANT-NH2 [Peptide 254]
27.1 | H[Aib]HGS[αMeF]TSDVSK[αMeF]LDSRAAK([AEEA-γGlu-γGlu-C18 diacid])D[αMeF]VQ[Aib]IANT-NH2 [Peptide 274]
143 | H[Aib]HGS[αMeF]TSDVSK[αMeF]LDSRAAK([γGlu-C20 diacid])D[αMeF]VQ[Aib]IANT-NH2 [Peptide 276]
71.2 | H[Aib]HGS[αMeF]TSDVSK[αMeF]LDSRAAK([AEEA-γGlu-AEEA-C20 diacid])D[αMeF]VQ[Aib]IANT-NH2 [Peptide 265]
16.2 | B2
75.5 | H[Aib]HGS[αMeF]TSDVSK[αMeF]LDSR[Aib]AK([AEEA-γGlu-C18 diacid])DFVESIANT-NH2 [Peptide 253]
69.5 | H[Aib]HGS[αMeF]TSDVSK[αMeF]LDSRAAK([(PEG)2-(PEG)2-γGlu-γGlu-C20 diacid])D[αMeF]VQ[Aib]IANT-NH2 [Peptide 264]
19.1 | H[Aib]HGS[αMeF]TSDVSK[αMeF]LDSRAAK([AEEA-γGlu-AEEA-C18 diacid])D[αMeF]VQ[Aib]IANT-NH2 [Peptide 259]
39.5 | B3
78.3 | H[Aib]HGS[αMeF]TSDVSK[αMeF]LDSRAAK([AEEA-AEEA-γGlu-C20 diacid])D[αMeF]VQ[Aib]IANT-NH2 [Peptide 280]
111 | H[Aib]HGS[αMeF]TSDVSK[αMeF]LDSRAAK([γGlu-γGlu-C20 diacid])D[αMeF]VQ[Aib]IANT-NH2 [Peptide 275]
25.4 | H[Aib]HGS[αMeF]TSDVSK[αMeF]LDSRAAK([PEG4-γGlu-γGlu-C18 diacid])D[αMeF]VQ[Aib]IANT-NH2 [Peptide 263]
33.1 | H[Aib]HGS[αMeF]TSDVSK[αMeF]LDSRAAK([AEEA-γGlu-AEEA-γGlu-C18 diacid])D[αMeF]VQ[Aib]IANT-NH2 [Peptide 260]
34 | H[Aib]HGS[αMeF]TSDVSK[αMeF]LDSRAAK([(PEG)2-(PEG)2-γGlu-γGlu-C18 diacid])D[αMeF]VQ[Aib]IANT-NH2 [Peptide 258]
22.1 | H[Aib]HGS[αMeF]TSDVSK[αMeF]LDSRAAK([AEEA-C18 diacid])D[αMeF]VQ[Aib]IANT-NH2 [Peptide 273]
52 | H[Aib]HGS[αMeF]TSDVSK[αMeF]LDSRAAK([PEG4′-γGlu-γGlu-C20 diacid])D[αMeF]VQ[Aib]IANT-NH2 [Peptide 269]
49.5 | H[Aib]HGS[αMeF]TSDVSK[αMeF]LDSRAAK([AEEA-AEEA-C20 diacid])D[αMeF]VQ[Aib]IANT-NH2 [Peptide 277]

Target: human glucagon receptor (human, UniProt P47871 26-477)
Test: cell-based or functional assay

Chain of human glucagon receptor (P47871 26-477): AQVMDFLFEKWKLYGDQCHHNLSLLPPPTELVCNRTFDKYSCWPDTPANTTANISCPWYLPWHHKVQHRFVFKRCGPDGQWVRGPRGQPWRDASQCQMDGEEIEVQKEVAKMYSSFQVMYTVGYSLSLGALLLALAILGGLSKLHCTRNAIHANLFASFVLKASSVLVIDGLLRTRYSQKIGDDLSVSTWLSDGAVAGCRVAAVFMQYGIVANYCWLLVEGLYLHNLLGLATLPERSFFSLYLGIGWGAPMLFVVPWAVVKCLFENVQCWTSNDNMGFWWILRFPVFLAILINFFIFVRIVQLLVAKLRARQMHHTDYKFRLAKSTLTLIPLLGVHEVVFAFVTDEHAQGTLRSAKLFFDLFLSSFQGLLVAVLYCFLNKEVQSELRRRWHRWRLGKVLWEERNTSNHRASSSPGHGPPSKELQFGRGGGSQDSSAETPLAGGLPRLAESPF

hGluc-R EC50 (pM), cAMP [pM] | Binder
28 | B1
31.3 | H[Aib]HGS[αMeF]TSDVSK[αMeF]LDSRAAK([γGlu-γGlu-C18 diacid])D[αMeF]VQ[Aib]IANT-NH2 [Peptide 270]
293 | H[Aib]HGS[αMeF]TSDVSK[αMeF]LDSRAAK([AEEA-γGlu-AEEA-γGlu-C20 diacid])D[αMeF]VQ[Aib]IANT-NH2 [Peptide 266]
1310 | H[Aib]HGS[αMeF]TSDVSK[αMeF]LDSQAAK([AEEA-AEEA-γGlu-γGlu-C20 diacid])D[αMeF]VQ[Aib]IANT-NH2 [Peptide 256]
14.3 | H[Aib]HGS[αMeF]TSDVSK[αMeF]LDSRAAK([AEEA-AEEA-C18 diacid])D[αMeF]VQ[Aib]IANT-NH2 [Peptide 272]
150 | H[Aib]HGS[αMeF]TSDVSK[αMeF]LDSRAAK([AEEA-γGlu-γGlu-C20 diacid])D[αMeF]VQ[Aib]IANT-NH2 [Peptide 279]
128 | H[Aib]HGS[αMeF]TSDVSK[αMeF]LDSRAAK([PEG4-γGlu-C20 diacid])D[αMeF]VQ[Aib]IANT-NH2 [Peptide 267]
83.5 | H[Aib]HGS[αMeF]TSDVSK[αMeF]LDSRAAK([AEEA-C20 diacid])D[αMeF]VQ[Aib]IANT-NH2 [Peptide 278]
11.7 | H[Aib]HGS[αMeF]TSDVSK[αMeF]LDSRAAK([AEEA-γGlu-C18 diacid])D[αMeF]VQ[Aib]IANT-NH2 [Peptide 262]
125 | H[Aib]HGS[αMeF]TSDVSK[αMeF]LDSR[Aib]AK([γGlu-C18 diacid])DFVESIANT-NH2 [Peptide 254]
31.3 | H[Aib]HGS[αMeF]TSDVSK[αMeF]LDSRAAK([AEEA-γGlu-γGlu-C18 diacid])D[αMeF]VQ[Aib]IANT-NH2 [Peptide 274]
91.4 | H[Aib]HGS[αMeF]TSDVSK[αMeF]LDSRAAK([γGlu-C20 diacid])D[αMeF]VQ[Aib]IANT-NH2 [Peptide 276]
131 | H[Aib]HGS[αMeF]TSDVSK[αMeF]LDSRAAK([AEEA-γGlu-AEEA-C20 diacid])D[αMeF]VQ[Aib]IANT-NH2 [Peptide 265]
29.4 | B2
53.1 | H[Aib]HGS[αMeF]TSDVSK[αMeF]LDSR[Aib]AK([AEEA-γGlu-C18 diacid])DFVESIANT-NH2 [Peptide 253]
297 | H[Aib]HGS[αMeF]TSDVSK[αMeF]LDSRAAK([(PEG)2-(PEG)2-γGlu-γGlu-C20 diacid])D[αMeF]VQ[Aib]IANT-NH2 [Peptide 264]
34.8 | H[Aib]HGS[αMeF]TSDVSK[αMeF]LDSRAAK([AEEA-γGlu-AEEA-C18 diacid])D[αMeF]VQ[Aib]IANT-NH2 [Peptide 259]
29.3 | B3
155 | H[Aib]HGS[αMeF]TSDVSK[αMeF]LDSRAAK([AEEA-AEEA-γGlu-C20 diacid])D[αMeF]VQ[Aib]IANT-NH2 [Peptide 280]
175 | H[Aib]HGS[αMeF]TSDVSK[αMeF]LDSRAAK([γGlu-γGlu-C20 diacid])D[αMeF]VQ[Aib]IANT-NH2 [Peptide 275]
64.6 | H[Aib]HGS[αMeF]TSDVSK[αMeF]LDSRAAK([PEG4-γGlu-γGlu-C18 diacid])D[αMeF]VQ[Aib]IANT-NH2 [Peptide 263]
76.9 | H[Aib]HGS[αMeF]TSDVSK[αMeF]LDSRAAK([AEEA-γGlu-AEEA-γGlu-C18 diacid])D[αMeF]VQ[Aib]IANT-NH2 [Peptide 260]
93.1 | H[Aib]HGS[αMeF]TSDVSK[αMeF]LDSRAAK([(PEG)2-(PEG)2-γGlu-γGlu-C18 diacid])D[αMeF]VQ[Aib]IANT-NH2 [Peptide 258]
23.3 | H[Aib]HGS[αMeF]TSDVSK[αMeF]LDSRAAK([AEEA-C18 diacid])D[αMeF]VQ[Aib]IANT-NH2 [Peptide 273]
271 | H[Aib]HGS[αMeF]TSDVSK[αMeF]LDSRAAK([PEG4′-γGlu-γGlu-C20 diacid])D[αMeF]VQ[Aib]IANT-NH2 [Peptide 269]
57.3 | H[Aib]HGS[αMeF]TSDVSK[αMeF]LDSRAAK([AEEA-AEEA-C20 diacid])D[αMeF]VQ[Aib]IANT-NH2 [Peptide 277]
